From the nanobody polyreactivity screen of Harvey et al. (2022)

Assay: yeast display, Sf9 membrane polyspecificity reagent, FACS + sequencing; frameworks hold sequencing errors
Outline: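 Genes from sorted yeast were amplified by colony PCR, read by MiSeq 2 × 250 sequencing and filtered on CDR length. These cells carried a synthetic nanobody library in Saccharomyces cerevisiae BJ5465 and were sorted by FACS into low and high (top ~1%) gates on anti-HA and streptavidin fluorescence. Polyreactivity is labelled according to the gate of origin.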

Sequence | polyreactivity (PSR sort gate)
QVQLVESGGGLVQAGGSVRLSCAASGRIFRYYMGWYRQAPGKEREFVAAITTRGGRTYYADSVKGRFTISRDNAKNTVSLQMNSLKPEDTAVYYCAAGYNGAIIALRAYDYWGQGTQVTVSS | high polyreactivity
QVQLVESGGGLVQAGGSVRLSCAASGSIFNANTMGWYRQAPGKERELVAVITSGGTTNYADSVKGRFTISRDNAKNTVYLQMNSLKPEDTAVYYCAVRISGNWYDYWGQGTQVTVSS | low polyreactivity
QVQLVESGGGLVQAGGSVRLSCAASGSTSAYAMGWYRQAPGKEREFVAAIRFSAGSTYYADSVKGRFTISRDNAKNTVYLQMNSLKPEDTAVYYCAASYSVIFGYFPDYYWVVEYDYWGQGTQVTVSS | high polyreactivity
QVQLVESGGGLVQAGGTIRISSAPSGRTLGCNAMGRSRQAPGKEWELVSAISYSGGDTTYADSVKGRFTISRDKAKNTVYLQMNSLKPEDTAVYYCAARGDYYVYAYNRRFVYLGQGTQVTVSS | low polyreactivity
QVQLVESGGGLVQAGGTLPLTCAASGSTYYVYAMGCDRQAPGKEREFVAAITGSDGSTYYADSVMGRFTISRDNAKNTVYLQMNSLKPEDTAVYYCAADYYLQNYETGYGYWGQGTQVTVSS | low polyreactivity
QVQLVESGGGLVQAGGTLRLRCAASGFTFRYYVMRWYRQAPGKERELVAAITSGGSTNYADSVKGRFSISRDNAQNTVYLLMNSLKPEDTAVYYCAAGLSYRHNYWGQGTQVTVSS | low polyreactivity
QVQLVESGGGLVQAGGTLRLSCAASGFIFGINAMGWYRQAPGQERELVAAIATGDRTNYADSVTGRFTISRDNAKNTVYLQMNSLKPEHTAVYYCAAGVHWDRGDYWGQGTQVTVST | low polyreactivity
QVQLVESGGGLVQAGGTLRLSCAASGFIINRYAMGWYRQPPGKERELVAAISWSGGRTYYADSVKGRFTISRDNAKNTVSLQMNSLKPEDTAVYYCAADSYTSLDGRDYWGQGTQVTVSS | high polyreactivity
QVQLVESGGGLVQAGGTLRLSCAASGFIISRNAMGWYRQAPRKERELVAAITWPGGTTYYADSVKGRFTISRDNAKNTVYLQMISLKPEDTAVYYSAADEYGPHTFSPEYDSWGQGTQVTVSS | low polyreactivity
QVQLVESGGGLVQAGGTLRLSCAASGFTFSINAMGWSRQAPGKERELVAGISWSGGITYYADSVKGRFTISRDNAKNTVYLQMNSLKPEDTAVYYCNTDYGLTTPVVWDDYWGQGTQVTVSS | low polyreactivity
QVQLVESGGGLVQAGGTLRLSCAASGGIFGGYAMGWYRQAPGTEGELVAVITSGGSTYYADSVKGRFTISRDNAKNTVYLQMNSLKPEDTAVYYCAADGHSYSYSTYDYWGQGTQVTVSS | low polyreactivity
QVQLVESGGGLVQAGGTLRLSCAASGIIFGVYAMGWYRQAPGKERELVAAIDGNGSSTYYADSVKGRFTISRDTAKNTVYLQMNSLKPEDTAVYYCPAGYWSYLYYWYDFDYWGQGTQVTVSS | low polyreactivity
QVQLVESGGGLVQAGGTLRLSCAASGITFDYNAMGWYRQAPGKERELVATISDTGSTNYADSVKGRFTISRDNAKNTVYLQMNSLKPEDTAVYYCAADGLGDYHPKWEYQEYDYWGQGTQVTVSS | low polyreactivity
QVQLVESGGGLVQAGGTLRLSCAASGITFTGNDMGWYRQAPGKERELVAAISNRGGSTYYADSVKGRFTISRDNAKNTVYLQMNSLKPEDTAVYYCRTSTPRRVSGNYWGQGTQVTVSS | high polyreactivity
QVQLVESGGGLVQAGGTLRLSCAASGLISYFYGMGWYRQAPGKERELVAGIDTGSSTNYADSVKGRFTISRDNAKNTVYLQMNSLKPEDTAVYYCAADSVSKYGSDYWGQGTQVTVSS | low polyreactivity
QVQLVESGGGLVQAGGTLRLSCAASGLTFGYNAMVWYRQAPRKERELVATISYSGGRTYYADSVKGRFTISRDTAKNTVYLQMNSLKPEDTAVYSCAARRASGPYGFGYWGQGTQVTVSS | high polyreactivity
QVQLVESGGGLVQAGGTLRLSCAASGLTFKSYDMGWYRHAPGKERELVAAITSGVSTHYADSVKGRFTISRDNAKNTVYLQMNSLKPEDTAVYYCAADYSWYDPYWIMDYWGQGTQVTVSS | low polyreactivity
QVQLVESGGGLVQAGGTLRLSCAASGNTFRYYAMGWYRQSPGKERELVARITGRAGSTYYADSVKGRFTISRDNAKKTVYLQMNSLKPEDTAVYYCAAEFYYGFDYWGQGTQVTVSS | high polyreactivity
QVQLVESGGGLVQAGGTLRLSCAASGRIFPAYVMGWYRQAPGKERELVATIDNGGGTYYADSVKGRFTISRDNAKNTVYLQMNSLKPEDTAVYYCARDRHVRWGLKMDYWGQGTQVTVSS | low polyreactivity
QVQLVESGGGLVQAGGTLRLSCAASGRIFPRNVLGWYRQAPGKEWELVAAISSRGTRTYYADSVKGRFTISRDNAKNTVYLQMNSLKPEDTPVYYCAADGPYEGYDDWGQGTQVTVSS | high polyreactivity
QVQLVESGGGLVQAGGTLRLSCAASGRTFSGYAMGWYRQAPGKERELVAAIDRGDGTNYADSVKGRFTISRDNAKNTVYLQMNSLKPEDTAVYYCAADYSYGSTSHTYTGFDYWGQGTQVTVSS | low polyreactivity
QVQLVESGGGLVQAGGTLRLSCAASGSIFGKNAMGWYRQARGKERELVAAITWSGGSTYYADSVKGRFTISRDNAKNTVSLQINSLKPEDTAVYYCNAVRVRVTSHRIRQLDYGYWGQGTQVTVSS | low polyreactivity

Sequence | polyreactivity (PSR sort gate)
QVQLVESGGGLVQAGGTLRLSCAASGSIFRGNGMGWYRQAPGKERELVAAISRSGGRTYYADSVKGRFTFSRDNAKNTVYLQMNSLKPEDTAVYYCAAVPPYNYRFRVYYWGQGSQVTVSS | high polyreactivity
QVQLVESGGGLVQAGGTLRLSCAASGSIFRYYAMGWYRQAPGKERELVATITSTGGSTYYADSVKGRFTISRDNAKNTVYLQMNSLKPEDTAVYYCAARNKLYVTVRGYYLSGYWGQGTQVTVSS | high polyreactivity
QVQLVESGGGLVQAGGTLRLSCAASGSIFRYYTMGWYRQAPGKERELVAAITWDGDSTYYADSVKGRFTISLDNAKNTVYLQMNSLKPEDTAVYYCNADDYGPGFDYWGQGTQVTVSS | low polyreactivity
QVQLVESGGGLVQAGGTLRLSCAASGSILGGNAMGWYRQAPGKERELVAAITFSGGGTYYADSVKGRFTISRDNAKNTVYLQMNSLKPEDTAVYYCAADKDGYTYEFDYWGQGTQVTVSS | low polyreactivity
QVQLVESGGGLVQAGGTLRLSCAASGSILTPNAMGWSRQAPGKERELVAAISDNAGSTYYADSVKGRFTISRDNAKNTVYLQMNSLKPEDTAVYYCAAEYWEYNLVYLVYYYSMDYWGQGTQVTVSS | high polyreactivity
QVQLVESGGGLVQAGGTLRLSCAASGSIVQSYAMGWYRQAPGKERELVAAITERGGSTYYADSVKGRFTISRDNAKNTVYLQMNSLKPEDTAVYYCAAKAVGLGKSWRGDDYWGQGTQVTVSS | low polyreactivity
QVQLVESGGGLVQAGGTLRLSCAASGSTFAANAMGWYRQAPGKERELVAAITSSGGSTYYADSVKGRFTISRDNAKNTVYLQMNSLKPEDTAVYYCNTDIERYVRIYDSWGQGTQVTVSS | low polyreactivity
QVQLVESGGGLVQAGGTLRLSCAASGSTFGVYAMGWYRQAPGKERELVAAIDNSGDDTYYADSVKGRFTISRDNAKNTVYLQMNSLKPEDTAVYYCAADFWDGRSTLNFWGQGTQVTVSS | high polyreactivity
QVQLVESGGGLVQAGGTLRLSCAASGSTFVDYAMGWYRQAPGKERELVAGINGSGGSTYYADSVKGRFTISRDNAKNTVYLQMNSLKPEDTAVYYCAKDGSNRLALPAWDYNYWGQGTQVTVSS | low polyreactivity
QVQLVESGGGLVQAGGTLRLSCAASGSTISYYTMGWYRQAPGKERELVAAISRSGTRTYYADSVKGRFTISRDNPKNTVYLQMNSLKPEDTAFFYCAARSPFYSYTPGYEYWGQGTQVTVSS | high polyreactivity
QVQLVESGGGLVQAGGTLRLSCAASGSTQWGYDMGWYRQATGKERELVAAISSSGSNTRYADSVKGRFTISRDNEKNTVYLQLNRLKPEDTAVYYCTARTYLRGKTDYGYDSWGQGTHVTVSS | high polyreactivity
QVQLVESGGGLVQAGGTLRLSCAASGSTYEVYAMGWYRQAPGTERELVAVITGNGGSTNYADSVKGRFTISRDNAKNTVYLQMNSLKPEDTAVYYCAADFYTFVRSDYWGQGTQVTVSS | low polyreactivity
QVQLVESGGGLVQAGGTLRLSCAASGYTFPLYAMGWYRQAPVKERELVADINIGGASTYYADSVKGRFTISRDNATNTVYLQMNSLKPEDTAVYDCAKEYYDGYFPTFDYDYFGQGTQVTVSS | low polyreactivity
QVQLVESGGGLVQAGGTLRLSCDASGFIFPGYAKGWSRNATGKQREFVAAISRSGGSTYYADSVKGRFTISRDNAKNTVYLQMNSLKPEDTAVYYCATRARGYTGYDYWGQGTQVTVSS | high polyreactivity
QVQLVESGGGLVQAGGTLRLSGAASGFIFPQYAMGWYRQAPGKERELVAAISTGGGSTYYADSVKGRFTISRDNAKNTVYLQMNSLKPEDTAVYYCNARPKYDSGHYYWGQGTQVTVSS | high polyreactivity
QVQLVESGGGLVQAGGTLRLSGAASGRTLRRYAMGWYRQAPGKARELVATISGRGGSTYYADSVKGRFTISRDNAKNTVYLQMNSLKPEDTAVYYCAADSVLSKYDYWGQGTQVTVSS | high polyreactivity
QVQLVESGGGLVQAGGTLSLSCAATGRNLSYAMGWYRQAPGKERELVAAMNWSGGTTYYADSVKGRFTISRDNAKNTVYLQMNSLKQEDTAVYYCAARVRGTGYNSWGQGTQLTVSS | high polyreactivity
QVQLVESGGGLVQAGRILRLSCAASGIILGRYAMGWYRQAHGKERELVAAITASGGRTYYADSVKGRFTISRDNAKNTVYLQMNSLKPEDTAVYYCNTVYWGYKSHYDYWGQGTQVTVSS | high polyreactivity
QVQLVESGGGLVQAGRSHRLSCAASGFTFFDNAMGWYRQAPGKERELVAAITWSDGSTYYADSVKGRFTISRDNAKNTVYLQMNSLKPEDTAVYYCNKRGWWDLRHDYWGQGTHVTVSS | low polyreactivity
QVQLVESGGGLVQAGRSLRLICAASGRISVFYTMGWYRQAPGKERELVAVIRTSGGRTNYADSVKGRFTISRDNAKNTVYLQMNSLKPEDTAVYYCAARVVRYGFKYYYWGQGTQVTVSS | low polyreactivity
QVQLVESGGGLVQAGRSLRLICAASGSTFPSYAMGWYRQAPGNERELVAAINSGGGTNYADAVKGRFTISRDNAKNTVYLQMNSLKPEDTAVFYCAKSRYDYTKTEGGYWGQATQVTVSS | low polyreactivity
